Data on six compounds can be found in patent US11766414B2, “Compositions, delivery systems, and methods useful in tumor therapy” (Indi Molecular, Inc., priority 2020, dated 2023).

pKd: −log10 of the molar value. Starred links: 1 amine or outer side, 2 acyl side, 3 side chain; linkers in the order of their positions; H or OH if unused. Positions of bridges follow the written chain, without caps; N, C: chain ends. Non-standard residues stand in square brackets, D forms with d. Residues, ends and D or L forms follow the SMILES beside them. Triazole bridges read from a SMILES are 1,4-linked. *: point of attachment. DOTA = O=C(O)CN1CCN(CC(=O)O)CCN(CC(=O)*)CCN(CC(=O)O)CC1; Pteroyl = Nc1nc2ncc(CNc3ccc(C(=O)*)cc3)nc2c(=O)[nH]1; Butanoyl(4-(4-I-phenyl)) = O=C(CCCc1ccc(I)cc1)*; Butanoyl(4-(4-MePh)) = Cc1ccc(CCCC(=O)*)cc1; Lys(N3) = [N-]=[N+]=NCCCC[C@H](N)C(=O)O; γGlu = O=C(O)[C@H](CCC(=O)[*:2])N[*:1]; AEEEA = NCCOCCOCCOCC(=O)O; Pra = C#CC[C@H](N)C(=O)O

The nature of data set [1]: Plasma protein binding, human plasma. The data set is classed as in vitro ADME. The conditions noted are these: human, plasma. The method, then: (§1) HTD 96 a/b regenerated cellulose membrane strips with mass cutoff of 12-14 kDa were soaked in ultra-pure water at room temperature for 1 hour. Each swelled membrane was then soaked in 20:80 ethanol:water for 20 minutes.
(§2) Just prior to the experiment, the membranes were re-soaked in ultra-pure water. Plasma was prepared by thawing under cold water. The plasma was centrifuged to remove any clots and pH was adjusted to 7.0-8.0. Test articles and control compounds were diluted to 2 μM. The dialysis device was loaded by transferring 150 μL of the test article (in triplicate) to the donor side. The dialysis device was placed in a humidified incubator at 37° C. with 5% CO2 in a shaking platform that rotated slowly for 4 hours. After incubation, 50 μL of the supernatant was taken from both sides and analyzed by LC-MS/MS.

Data set [2] is described as follows: Plasma protein binding, CD-1 mouse plasma. The conditions noted are these: CD-1 mouse plasma; read-out: Plasma % Bound, Mu (converted). It is filed as in vitro ADME. The method, then: as §1, §2
Data set [3] deals with human recombinant NEP (Homo sapiens, UniProt P08473). The experiment in a line: NEP enzymatic cleavage assay (MALDI, HPLC). It is filed as biochemical. The conditions noted are these: for cleavage of the test article: 1 nM NEP, MALDI-TOF MS; for in vitro Assay Data (NEP assay): Table 2. The protocol: In order to test the susceptibility of GFK and MVK linkers to NEP-mediated cleavage, the peptide (Folate-hshta-Lys(MPBA)-Gly-Phe-Lys(DOTA) (SEQ ID NO:6)) was incubated with human recombinant NEP and analyzed the solution for the presence of cleaved adducts. MALDI was utilized to monitor the cleavage of a PCC heterobiligand that contains a NEP protease recognizable sequence (G-F-K). The PCC concentration was constant and the NEP concentration was titrated down from 10 nM to 1 nM, 0.1 nM, 0.01 nM, and no NEP. The NEP-mediated cleaved adduct was identified by mass. 10 μM PCC containing the GFK linker was combined with varying amounts of NEP. […] Below 0.1 nM no cleavage was observed. • Folate-hshta-Lys(MPBA)-Gly-Phe-Lys(DOTA) (SEQ ID NO:6) • Molecular weight 2231.42
The NEP-mediated cleavage was also monitored by HPLC. In agreement with the MALDI spectra, the HPLC chromatograms show depletion of the parent brush-border heterobiligand (retention time 17.1 minutes), dose-dependent on the amount of NEP spiked into the sample (10 nM, 1 nM, 0.1 nM, 0.01 nM, and no NEP). An appearance of a new peak (retention time 16.5 minutes) in concert with the depletion of the starting material is presumed to be the cleaved folate-containing peptide.
In order to test the specificity of NEP, a non-cleavable linker (PEG3) was also assayed.
To reduce the radioactive dose to the kidney, Indi ^177Lu-7327 was constructed to incorporate a GFK linker that is susceptible to cleavage by enzymes found predominately in the kidney's brush border. These enzymes cleave off the radionuclide-chelator complex, which is quickly eliminated by the kidney for excretion in the urine. The zinc metalloprotease neprilysin (NEP) is expressed with high abundance in the kidney. […] To confirm NEP-mediated cleavage of the GFK linker in Indi 7327, the peptide was incubated with recombinant human NEP at 37° C. for 1 h and analyzed by matrix-assisted laser desorption/ionization mass spectrometry (MALDI-MS) for the evolution of cleaved adducts (FIG. 42). […] The expected cleaved adduct (mass: 1283.16 m/z) appears in the samples containing 10, 1.0, and 0.1 nM NEP. […] Below 0.1 nM NEP, no cleavage was observed. In addition to confirming the selectivity of NEP for the GFK linker, it is also important to note that the remaining portions of the Indi 7327 were impervious to the enzyme.

A short description of data set [4]: Plasma stability, human plasma.
Description: (§3) Plasma was thawed in a 37° C. water bath. Residual clots were removed via centrifugation at 4000 rpm for 5 minutes. The pH of the plasma was adjusted to 7.4 if required. Test articles were diluted to 100 μM by diluting a 1 mM working solution (in DMSO) with 45% methanol in water. To 98 μL of plasma was added 2 μL of the 100 μM solution, resulting in 2 μM final concentration of the test article. Samples were incubated at 37° C. in a water bath. At the indicated time points (0, 10, 30, 60, 120 minutes) 100 μL of 4% H3PO4 was added followed by 800 μL of stop solution (200 ng/mL tolbutamide and 200 ng/mL labetalol in 100% acetonitrile). The samples were centrifuged and the plasma protein-free supernatant (100 μL) was subjected to LC-MS/MS analysis.
Data set [5] can be described thus: Plasma stability, CD-1 mouse plasma.
Description: as §3
The test system of data set [6] is OVCAR3 (FOLR1+) tumor bearing NSG mice. The conditions noted are these: mouse, in vivo. The method, then:
Female, 7-week-old NSG mice were housed under pathogen-free conditions. Water and food were provided ad libitum. To create mice with FOLR1+ ovarian xenograft tumors, mice were injected subcutaneously with OVCAR3 cells (1×10^7 cells per mouse) resuspended in 50% Matrigel in PBS into the shoulder region. Tumor growth was monitored by caliper measurements. OVCAR3 is a human ovarian adenocarcinoma known to over-express FOLR1.
^68Ga PET imaging was used to study in vivo biodistribution of heterobiligands in non-tumor bearing (healthy) mice and OVCAR3 tumor bearing mice. 100-200 μCi of [^68Ga]DOTA-labeled heterobiligand was administered intravenously (i.v.) via the tail vein of each mouse. […]
Evaluation of a folate-hshta (SEQ ID NO:6) Nterm heterobiligand bearing both an albumin binder and DOTA chelator in PET was a priority, given that DOTA can accommodate both ^68Ga for imaging and ^177Lu for radiotherapy. […] The time-course biodistribution of ^68Ga-labeled folate-hshta-PEG3-Lys(MPBA)-Lys(DOTA) (SEQ ID NO:6) (compound #2809) was calculated to quantify the uptake in major organs including the tumor (FIG. 17). […] Larger tumors (490 mm^3) were also evaluated with the ^68Ga-chelated PET probe.
Biodistribution was initially evaluated by PET imaging, as the time frame for a significant portion of clearance is roughly similar to the time frame of PET imaging experiments. […]

Data set [7] has as its system human plasma proteins. As to the kind of experiment: Plasma protein binding, human plasma. The conditions noted are these: human plasma. The data set is classed as in vitro ADME. The protocol: as §1, §2
Data set [8] has as its system mouse plasma proteins. As to the kind of experiment: Plasma protein binding, CD-1 mouse plasma. It is filed as in vitro ADME. The conditions noted are these: CD-1 mouse plasma. The method, then: as §1, §2
In data set [9] the target is human serum albumin (Homo sapiens, UniProt P02768). The conditions noted are these: read-out: affinity for human serum albumin; cited from earlier work.
The mark [10] stands for this setting: human plasma, read-out: Plasma % Bound, Hu (converted).

human recombinant NEP, sequence (P08473 whole entry): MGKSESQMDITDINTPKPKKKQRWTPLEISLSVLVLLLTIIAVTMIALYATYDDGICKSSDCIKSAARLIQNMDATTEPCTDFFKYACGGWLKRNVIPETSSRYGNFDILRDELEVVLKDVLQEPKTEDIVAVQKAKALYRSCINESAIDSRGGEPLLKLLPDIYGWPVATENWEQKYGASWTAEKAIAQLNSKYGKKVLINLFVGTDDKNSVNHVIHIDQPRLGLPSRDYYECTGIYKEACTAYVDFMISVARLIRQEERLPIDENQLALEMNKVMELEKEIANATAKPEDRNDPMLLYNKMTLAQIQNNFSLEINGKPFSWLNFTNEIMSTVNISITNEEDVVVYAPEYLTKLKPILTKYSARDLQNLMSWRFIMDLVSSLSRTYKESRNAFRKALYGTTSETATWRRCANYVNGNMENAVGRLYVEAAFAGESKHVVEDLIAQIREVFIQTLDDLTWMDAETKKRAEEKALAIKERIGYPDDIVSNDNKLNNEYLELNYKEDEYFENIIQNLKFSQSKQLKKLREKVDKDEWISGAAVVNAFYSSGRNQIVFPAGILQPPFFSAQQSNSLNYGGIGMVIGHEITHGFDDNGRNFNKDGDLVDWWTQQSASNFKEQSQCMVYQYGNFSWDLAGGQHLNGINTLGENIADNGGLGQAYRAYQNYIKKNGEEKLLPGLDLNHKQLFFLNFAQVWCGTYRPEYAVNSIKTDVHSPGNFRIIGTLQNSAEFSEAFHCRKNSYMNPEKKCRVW

In general, half-life refers to the time needed for the level to fall by half in the phase considered. For the compound `C[C@H](O)[C@H]1NC(=O)[C@@H](Cc2c[nH]cn2)NC(=O)[C@@H](CO)NC(=O)[C@@H](Cc2c[nH]cn2)NC(=O)[C@@H](NC(=O)CC[C@H](NC(=O)c2ccc(NCc3cnc4nc(N)[nH]c(=O)c4n3)cc2)C(=O)O)Cc2cn(nn2)CCCC[C@@H](C(=O)N[C@@H](CCCCNC(=O)CCCc2ccc(I)cc2)C(=O)NCC(=O)N[C@@H](Cc2ccccc2)C(=O)N[C@@H](CCCCNC(=O)CN2CCN(CC(=O)O)CCN(CC(=O)O)CCN(CC(=O)O)CC2)C(=O)O)NC(=O)[C@@H](C)NC1=O` [Compound #1307, folate-hshta-Lys(IPBA)-Gly-Phe-Lys(DOTA)] ({Pteroyl-γGlu}-[Pra][dH][dS][dH][dT][dA][Lys(N3)]K(Butanoyl(4-(4-I-phenyl)))GFK(DOTA)-OH; triazole 1-7), the fraction unbound is 0.005 in [1] (setting [10]) and 0.004 in data set [2]. For the same compound, the “cleavage of the test article” value in data set [3] was “complete”. In addition, the “in vitro Assay Data (NEP assay)” value in data set [3] was “Cleavage of -G-F-K-”. Besides, the half-life in data set [4] and in data set [5] was > 4.82 h in each case.
With `C[C@H](O)[C@H]1NC(=O)[C@@H](Cc2cnc[nH]2)NC(=O)[C@@H](CO)NC(=O)[C@@H](Cc2cnc[nH]2)NC(=O)[C@@H](NC(=O)CC[C@H](NC(=O)c2ccc(NCc3cnc4nc(N)[nH]c(=O)c4n3)cc2)C(=O)O)Cc2cn(nn2)CCCC[C@@H](C(=O)NCC(=O)N[C@@H](Cc2ccccc2)C(=O)N[C@@H](CCCCNC(=O)CN2CCN(CC(=O)O)CCN(CC(=O)O)CCN(CC(=O)O)CC2)C(=O)O)NC(=O)[C@@H](C)NC1=O` [Indi ^68Ga-7327, metal not drawn] ({Pteroyl-γGlu}-[Pra][dH][dS][dH][dT][dA][Lys(N3)]GFK(DOTA)-OH; triazole 1-7), in data set [6], the “kidney uptake (PET)” value is given as “significant reduction in kidney uptake”.
Consider `C[C@@H](O)[C@@H]1NC(=O)[C@H](CCCCN)NC(=O)[C@@H](Cc2c[nH]c3ccccc23)NC(=O)[C@H](Cc2ccccc2)NC(=O)[C@@H](NC(=O)[C@H](N)Cc2ccccc2)CSSC[C@@H](C(=O)N[C@H](CO)[C@@H](C)O)NC1=O` [Octreotide Acetate, reference compound], for which, in data set [7], the “Plasma % Bound, Hu” value came out at 59.41% and the “Plasma protein binding % Recovery, Hu” value was found to be 84.3%. In addition, in data set [8], the “Plasma % Bound, Mu” value was found to be 62.36% and the “Plasma protein binding % Recovery, Mu” value is given as 84.5%.
For `Cc1ccc(CCCC(=O)NCCCC[C@H](NC(=O)COCCOCCOCCNC(=O)[C@@H]2CCCCn3cc(nn3)C[C@H](NC(=O)CC[C@H](NC(=O)c3ccc(NCc4cnc5nc(N)[nH]c(=O)c5n4)cc3)C(=O)O)C(=O)N[C@H](Cc3c[nH]cn3)C(=O)N[C@H](CO)C(=O)N[C@H](Cc3c[nH]cn3)C(=O)N[C@H]([C@H](C)O)C(=O)N[C@H](C)C(=O)N2)C(=O)N[C@@H](CCCCNC(=O)CN2CCN(CC(=O)O)CCN(CC(=O)O)CCN(CC(=O)O)CC2)C(N)=O)cc1` [^68Ga-chelated compound #2809, metal not drawn] ({Pteroyl-γGlu}-[Pra][dH][dS][dH][dT][dA][Lys(N3)][AEEEA]K(Butanoyl(4-(4-MePh)))K(DOTA)-NH2; triazole 1-7), in data set [6] (iv, 200 uCi, 4 h), the “accumulation within the tumor” value is ~2.2 % of the injected dose/cc.
`CSCC[C@H](NC(=O)[C@H](CCCCNC(=O)CCCc1ccc(I)cc1)NC(=O)[C@@H]1CCCCn2cc(nn2)C[C@H](NC(=O)CC[C@H](NC(=O)c2ccc(NCc3cnc4nc(N)[nH]c(=O)c4n3)cc2)C(=O)O)C(=O)N[C@H](Cc2c[nH]cn2)C(=O)N[C@H](CO)C(=O)N[C@H](Cc2c[nH]cn2)C(=O)N[C@H]([C@H](C)O)C(=O)N[C@H](C)C(=O)N1)C(=O)N[C@H](C(=O)N[C@@H](CCCCNC(=O)CN1CCN(CC(=O)O)CCN(CC(=O)O)CCN(CC(=O)O)CC1)C(=O)O)C(C)C` [compound 1306, folate-hshta-Lys(IPBA)-M-V-Lys(DOTA)] ({Pteroyl-γGlu}-[Pra][dH][dS][dH][dT][dA][Lys(N3)]K(Butanoyl(4-(4-I-phenyl)))MVK(DOTA)-OH; triazole 1-7): the fraction unbound is 0.0265 in data set [1] (setting [10]); ~0.03 in [1] (species not given, read-out: bound to plasma (converted)); 0.0288 in data set [2]. Further, in data set [3], the “cleavage of the test article” value is given as “substantial”. Also, the “in vitro Assay Data (NEP assay)” value in data set [3] was “Cleavage of -M-V-K-”. Also, the half-life in data set [4] and in [5] was > 4.82 h each time.
For the compound “GI48-GA: albumin-binding fragment of protein G from Streptococcus strain GI48, SEQ ID NO:33 (LAEAKVLANRELDKYGVSDYYKNLINNAKTVEGVKALIDEILAA)”, the pKd in [9] is 9.00.
